According to US20080254027A1 (published 2008):

Molecular target: T1, CD5-His-GST (human, UniProt P06127 25-372)
T1 sequence: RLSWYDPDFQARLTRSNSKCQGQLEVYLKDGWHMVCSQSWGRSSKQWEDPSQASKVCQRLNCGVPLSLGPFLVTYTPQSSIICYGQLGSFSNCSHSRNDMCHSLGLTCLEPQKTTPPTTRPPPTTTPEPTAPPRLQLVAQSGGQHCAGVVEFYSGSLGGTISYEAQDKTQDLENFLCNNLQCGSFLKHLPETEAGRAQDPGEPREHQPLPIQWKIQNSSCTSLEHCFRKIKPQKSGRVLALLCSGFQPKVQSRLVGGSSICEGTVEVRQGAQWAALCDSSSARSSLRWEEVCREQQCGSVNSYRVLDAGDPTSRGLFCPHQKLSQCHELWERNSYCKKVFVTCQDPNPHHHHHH
Test: Biacore

Kd: ~1.5 nM
B1: 5D7_H0L0_IgG1_WT (antibody, V domains shown)
VH: QVTLKESGPGILKPSQTLSLTCSFSGFSLSTSGMGVGWIRQPSGKGLEWLAHIWWDDDVYYNPSLKNQLTISKDASRDQVFLKITNLDTADTATYYCVRRRATGTGFDYWGQGTTLTVSS
VL: NIVMTQSHKFMSTSVGDRVSIACKASQDVGTAVAWYQQKPGQSPKLLIYWTSTRHTGVPDRFTGSGSGTDFTLTITNVQSEDLADYFCHQYNSYNTFGSGTRLELKR
